Test results taken from patent US20090305254, “Method and Apparatus for Assaying Test Substance in Sample” (TECHNO MEDICA CO., LTD., published 2009).

B1: structure-switching thrombin aptamer with inserted hairpin (22-46 nt) (ssDNA)
DNA: CACTGGTAGGTTGGTGTGGTTGGACGACGAATTCATGATCACGTCCTTGGGGCCAGTG
B2: CaAp-1 IgE-binding aptamer (ssDNA)
DNA: TCACGTTTATCCGTCCCTCCTAGTGGCGTGA

Columns and labels:
thrombin = thrombin (UniProt P00734;P00734 P00734:328-363,P00734:364-622); assay: EMSA; 10 mM MOPS pH 7.4, room temp; thrombin-bound aptamer does not hybridize FITC 15-mer complementary strand; PQQGDH-labeled aptamer bead assay detection limit 100
[1] = target: T1, bovine serum albumin (BSA) (Bos taurus, UniProt P02769 P02769:25-607); assay: control; PQQGDH-labeled aptamer, electrochemical bead capture assay; no BSA-concentration-dependent current; details: G4 with inserted hairpin (15-nt loop 27-41, 5-bp stem)
T1 sequence (P02769 25-607, one chain of several): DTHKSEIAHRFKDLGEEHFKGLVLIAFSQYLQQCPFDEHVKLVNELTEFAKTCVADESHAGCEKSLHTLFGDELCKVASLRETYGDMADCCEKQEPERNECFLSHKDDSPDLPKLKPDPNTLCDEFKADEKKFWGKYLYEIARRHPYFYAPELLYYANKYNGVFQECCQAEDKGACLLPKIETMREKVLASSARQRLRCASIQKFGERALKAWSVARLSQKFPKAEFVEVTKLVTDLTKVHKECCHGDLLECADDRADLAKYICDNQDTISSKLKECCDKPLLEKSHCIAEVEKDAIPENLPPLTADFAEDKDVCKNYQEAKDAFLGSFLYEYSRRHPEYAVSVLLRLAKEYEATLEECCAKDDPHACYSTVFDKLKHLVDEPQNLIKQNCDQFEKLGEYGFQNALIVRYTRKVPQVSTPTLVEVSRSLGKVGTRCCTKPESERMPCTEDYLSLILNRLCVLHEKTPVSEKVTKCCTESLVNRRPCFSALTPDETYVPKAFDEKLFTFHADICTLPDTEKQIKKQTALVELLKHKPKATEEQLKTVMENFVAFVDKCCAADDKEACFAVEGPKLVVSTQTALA
Description: Each sample solution (100 μL), which contained thrombin (0 to 10 μg/mL, […]) and the PQQGDH-labeled aptamer (0.1 U, approx. 10 μmol) prepared above in Procedure (2), was added to the DNA-immobilized carrier (10 μL) obtained above in Procedure (1), and the resulting mixture was stirred at room temperature for 15 minutes and then centrifuged. Using the thus-obtained supernatant (20 μL) and 10 mM MOPS (pH 7.2, 4 mL in total), which contained mPMS (1-methoxyphenazine methosulphate) (6 mM), PQQ (1 μM) and CaCl₂ (1 mM), as a reaction solution, a gold electrode as a working electrode and a platinum electrode as an opposing electrode, the response current was measured at an impression potential of +100 mV vs Ag/AgCl while adding glucose to a final concentration of 60 mM. The measurement was conducted at 25° C. With respect to each of sample solutions containing thrombin at 50 to 1,000 μg/mL ([…]), detection was similarly conduced by doubling the amounts of the DNA-immobilized carrier and ap-GDH to be employed.
A thrombin-concentration-dependent increase in current value was observed up to the level of 10 μg/mL. When BSA was used as a control in place of thrombin, the resultant current value was low, no BSA-concentration-dependent increase in current value was observed (FIG. 4(b)), and the detection limit was 100 ng/mL (2.7 nM) (FIG. 4(a)). […]

[2] = target: T1, bovine serum albumin (BSA); assay: SPR; control; PBS with 1 mM MgCl2 pH 7.4; also no response current at 1 uM in electrochemical assay; details: label: biotin (SPR); hairpin
Description: Biotinylated CaAp-1 was immobilized on an SPR chip (SA chip), and variations in SPR signal when IgE solutions of various concentrations (100 μL) were fed were observed. Upon measurement of interaction, an Mg2+-containing PBS buffer (138 mM NaCl, 2.7 mM KCl, 8.1 mM NaHPO₄, 1.1 mM KHPO₄, 1 mM MgCl₂, pH 7.4) was used, and the flow rate was set at 20 μL/min. Observed as a control were variations in SPR signal when bovine serum albumin (BSA) solutions of various concentrations were fed.
To beads (20 μL; solid amount: 10 μL) with “NEUTRAVIDIN” (trade name) immobilized as a biotin-binding substance thereon, the biotin-modified 14-mer capture oligonucleotide (0.5 nmol) was added. With 100 mM phosphate buffer and 150 mM […] (pH7.2), the total volume was adjusted to 500 μL. The resultant mixture was stirred overnight at 4° C. to immobilize the 14-mer capture oligonucleotide on the beads. […] Using the supernatant (20 μL) and 10 mM MOPS (pH 7.2), which contained CaCl₂ (1 mM) and PQQ (1 μM), as a reaction solution (total volume: 4 mL), a gold electrode as a working electrode and a platinum electrode as an opposing electrode, the response current was measured at an impression potential of +100 mV vs Ag/AgCl while adding glucose to a final concentration of 60 mM. […]

Row | Binder | binding result (thrombin) | binding result [1] | binding result [2]
1 | B1 | binds | no binding | 
2 | B2 |  |  | no binding
